Reference: patent publication JP2018038398A (dated 2018)

T1: ヒトTFPI(American Diagnostica) (human, UniProt P10646 29-304, limits assumed)
T1 construct: Coated on plates (ELISA) or coupled to a CM5 chip (Biacore); also called human TFPI; hTFPI
T1 sequence (looked up): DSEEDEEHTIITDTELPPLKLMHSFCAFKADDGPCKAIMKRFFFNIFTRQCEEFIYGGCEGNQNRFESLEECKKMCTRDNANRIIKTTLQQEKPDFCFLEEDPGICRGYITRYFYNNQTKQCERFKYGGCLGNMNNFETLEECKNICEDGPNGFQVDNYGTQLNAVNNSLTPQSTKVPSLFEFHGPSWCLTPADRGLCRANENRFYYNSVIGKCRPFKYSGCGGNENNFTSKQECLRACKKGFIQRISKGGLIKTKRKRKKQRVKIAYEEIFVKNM

T2: マウスTFPI(R&D System) (mouse, UniProt O54819 29-289, limits assumed)
T2 construct: also called mouse TFPI; mTFPI
T2 sequence (looked up): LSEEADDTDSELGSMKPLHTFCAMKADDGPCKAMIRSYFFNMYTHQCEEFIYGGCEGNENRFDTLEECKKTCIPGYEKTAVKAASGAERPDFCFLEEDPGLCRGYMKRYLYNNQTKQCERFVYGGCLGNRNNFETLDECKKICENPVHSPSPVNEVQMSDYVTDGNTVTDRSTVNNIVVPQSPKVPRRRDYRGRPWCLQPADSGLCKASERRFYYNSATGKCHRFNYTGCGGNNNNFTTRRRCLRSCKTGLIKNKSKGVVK


Experiments:
[1] = target: T1, ヒトTFPI(American Diagnostica); experiment: ELISA on coated human TFPI
マウスTFPI(R&D System) [2] = target: T2, マウスTFPI(R&D System); experiment: ELISA on coated mouse TFPI
マウスTFPI(R&D System) [3] = target: T2, マウスTFPI(R&D System); experiment: ELISA on coated mouse TFPI, IgG against Fab
[4] = target: T1, ヒトTFPI(American Diagnostica); experiment: ELISA on coated human TFPI, IgG against Fab
[5] = target: T1, ヒトTFPI(American Diagnostica); experiment: ELISA screen of Fab lysates on coated human TFPI

EC50 [1] | EC50 (マウスTFPI(R&D System) [2]) | fold change of EC50 against 2G6-Fab (マウスTFPI(R&D System) [3]) | fold change of EC50 against 2G6-Fab [4] | binding result [5] | Binder
220 pM | 510 pM | 10 fold | 2 fold | – | 2G6−IgG (antibody, V domains shown, also called IgG-2G6; 2G6-IgG) VH: QVQLQQSGPGLVKPSQTLSLTCAISGDSVSSSSAAWSWIRQSPGRGLEWLGIIYYRSKWYNDYAVSVKSRITINPDTSKNQFSLQLNSVTPEDTAVYYCARHSMVGFDVWGQGTLVTVSS VL: DIVLTQSPATLSLSPGERATLSCRASQYVTSSYLAWYQQKPGQAPRLLIYGSSRATGVPARFSGSGSGTDFTLTISSLEPEDFATYYCQQYSSSPITFGQGTKVEIKR
– | – | – | – | binds | TP-2A8 (Fab, V domains shown, Human Fab from HuCAL Gold; also called Fab-2A8; TP-2A8-Fab) VH: QVQLVESGGGLVQPGGSLRLSCAASGFTFRSYGMSWVRQAPGKGLEWVSSIRGSSSSTYYADSVKGRFTISRDNSKNTLYLQMNSLRAEDTAVYYCARKYRYWFDYWGQGTLVTVSS VL: DIELTQPPSVSVAPGQTARISCSGDNLRNYYAHWYQQKPGQAPVVVIYYDNNRPSGIPERFSGSNSGNTATLTISGTQAEDEADYYCQSWDDGVPVFGGGTKLTVLG

The next lines start with the binder.

Binder | EC50 [1] | EC50 (マウスTFPI(R&D System) [2]) | fold change of EC50 against 2G6-Fab (マウスTFPI(R&D System) [3]) | fold change of EC50 against 2G6-Fab [4] | binding result [5]
TP-2G6 (Fab, V domains shown, Human Fab from HuCAL Gold, purified over Ni-NTA; also called 2G6-Fab) VH: QVQLQQSGPGLVKPSQTLSLTCAISGDSVSSSSAAWSWIRQSPGRGLEWLGIIYYRSKWYNDYAVSVKSRITINPDTSKNQFSLQLNSVTPEDTAVYYCARHSMVGFDVWGQGTLVTVSS VL: DIVLTQSPATLSLSPGERATLSCRASQYVTSSYLAWYQQKPGQAPRLLIYGSSRATGVPARFSGSGSGTDFTLTISSLEPEDFATYYCQQYSSSPITFGQGTKVEIKR | 480 pM | 5180 pM | – | – | –
TP-4B7 (Fab, V domains shown, Human Fab from HuCAL Gold) VH: QVQLQQSGPGLVKPSQTLSLTCAISGDSVSSNSAAWSWIRQSPGRGLEWLGIIYKRSKWYNDYAVSVKSRITINPDTSKNQFSLQLNSVTPEDTAVYYCARWHSDKHWGFDYWGQGTLVTVSS VL: DIVMTQSPLSLPVTPGEPASISCRSSQSLVFSDGNTYLNWYLQKPGQSPQLLIYKGSNRASGVPDRFSGSGSGTDFTLKISRVEAEDVGVYYCQQYDSYPLTFGQGTKVEIKR | – | – | – | – | binds
